# Assay results from patent US9750814B2, “Polypeptides to inhibit epstein barr viral protein BHRF1 and B cell lymphoma family proteins” (priority 2014, dated 2017).
# Positions count from the first letter of the chain named. In names and notes the source's numbering stands.
# B1: BbpD04.2: BbpD04.1 with four mutations: I21L, Q79L, I84Q and H104R (protein)
# chain: ADWKKVLDKAKDIAENRVRELKQKLEEFYKEAMKLDLTQEMRRKLMLRWIAAMLMAIGDIFNAIRQAKQEADKLKKAGLVNSQQLDELKRRLEELKEEASRKCRDYGREFQLKLEY
# B2: BINDI N62S: BINDI variant with N62S (protein)
# chain: B1 chain with W3P, I13Q, F28L, M33R, M46E, W49Y, F61Y, N62S, C103A
# B3: M-CDP02: SEQ ID NO: 29; target Mcl-1 (protein)
# chain: ADPKKVLDKAKDQAENRVRELKQELEELYKEARKLDLTQEERRKLEESYIAAMLRAIGDIFNAIMQAKNEADKLKKAGLVNSQQLDELRRRLEELRKEASLKAEDYGREFQEKLEY
# B4: M-CDP05: SEQ ID NO: 32; target Mcl-1 (protein)
# chain: ADPKKVLDKAKDQAENRVRELKQKLEELYKEARKLDLTQEERHRLETKALSALLAAIGDILDAIMQALQEAAKLKKAGLVNSQQLDELKRRLEELRKEASRKARDYGREFWLKLDY
# B5: 2-INDI: SEQ ID NO: 3; target Bcl-2 (protein)
# chain: ADPKKVLDKAKDEAENRVRELKQRLEELYKEARKLDLTQEMRQELVDKARAASLQANGDIFYAILRALAEAEKLKKAGLVNSQQLDELKRRLEELAEEARRKAEKLRDEFRLKLEY
# B6: XINDI: SEQ ID NO: 4; target Bcl-XL (protein)
# chain: ADPKKVLDKAKDRAENVVRKLKKELEELYKEARKLDLTQEMRDRIRRTAIAARFQAHGDIFHAIKHAKEEARKLKKAGLVNSQQLDELKRRLRELDEEAEQRAEKLGKEFRLKLEY
# B7: FINDI: SEQ ID NO: 6; target Bfl-1 (protein)
# chain: ADPKKVLDKAKDQAENRVRELKQKLEELYKEARKLDLTQEKRKKLEVATLGAVLAAHGDILNAIMQAKEEADKLKKAGLVNSQQLDELKRRLEELKEEALRKASDYGNEFHLKRRY
# B8: WINDI: SEQ ID NO: 265; target Bcl-w (protein)
# chain: DPKKVFDELKDRAENNVRRLKQKLEELYKEARKKDLTQEEREKLKTKYKTAMQLAALAAEGDIMNALLKARKLHKNGQVNEQQLEELARRLMELAKEAFQKAKDYANEFKYKLEY
# B9: X-CDP07: SEQ ID NO: 47; target Bcl-xL (protein)
# chain: ADPKKVLDKAKDRAENVVRKLKKELEELYKEARKLDLTQEMRDRIRLAAIAARIAAFGDIFHAIMEALEEARKLKKAGLVNSQQLDELKRRLEELDEEAAQRAEKLGKEFELKLEY
# Assays:
# BHRF1 = BHRF1 (Epstein-Barr virus, UniProt P03182)
# Sequence of BHRF1 (P03182 1-161): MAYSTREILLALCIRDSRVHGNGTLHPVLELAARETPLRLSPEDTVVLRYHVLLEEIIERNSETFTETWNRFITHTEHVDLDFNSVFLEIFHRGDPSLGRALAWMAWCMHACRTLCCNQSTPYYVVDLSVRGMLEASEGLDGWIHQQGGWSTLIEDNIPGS
# Protocol: Proteins (20 nmol each) were injected in a 200 μl loop in line with a Superdex-75 10/300 column (GE Healthcare) and separated with running buffer (20 mM Tris-Cl pH 7.5, 150 mM NaCl, 1 mM DTT) at room temperature.
# [1] = test system: mitochondria from six EBV-positive and four EBV-negative cancer lines; assay: Cytochrome c release from isolated mitochondria, panel of cancer lines; type: cell-based, human; settings: 10 μM
# Protocol: (§1) Cells (˜10^9) were equilibrated in 5 ml of homogenization buffer (0.25 M sucrose, 1 mM EGTA, 10 mM HEPES/NaOH, 0.5% BSA, pH 7.4, Roche Complete protease inhibitors) for 5 min. Samples were kept on ice or at 4° C. until assayed. Cells were homogenized under N2 pressure (400 psi) in a steel disruption vessel (Parr Instrument Company) for 10 min, then centrifuged (750 g) for 10 min to remove intact cells. Supernatant was centrifuged again (12,000 g) for 12 min to collect mitochondria. The pellet was resuspended in 300 μl wash buffer (0.25 M sucrose, 1 mM EDTA, 10 mM Tris/HCl pH 7.4). Proteins at the indicated concentrations were incubated with mitochondria (25 μg mitochondrial protein based on BCA assay, Sigma) in 50 μl final volume of experimental buffer (125 mM KCl, 10 mM Tris-MOPS pH 7.4, 5 mM glutamate, 2.5 mM malate, 1 mM K-PO4, 10 μM EGTA-Tris pH 7.4) for 30 min at room temperature. Reaction solutions were centrifuged (18,000 g) for 10 min at 4° C. and cytochrome c release was quantified using a Cytochrome c ELISA kit (Life Technologies). Complete cytochrome c release was quantified by treatment with 0.5% Triton-X100.
# (§2) Ramos, Ramos-AW, Daudi, Raji, DOHH2, JVM-2, and JVM-13 were grown in RPMI 1640 containing L-glutamine and 25 mM HEPES supplemented with 1% penicillin-streptomycin (GIBCO) and 10% fetal bovine serum (FBS, Invitrogen). […]
# Mcl-1 = target: T1, Mcl-1 (Homo sapiens, UniProt Q07820); assay: Bio-layer interferometry (BLI), immobilized Mcl-1; type: binding; settings: BLI; for Kd: lower bound in μM
# T1 construct: Mcl-1 a.a; made in house; host or cells: E. coli BL21* (DE3)
# T1 sequence (Q07820 172-327): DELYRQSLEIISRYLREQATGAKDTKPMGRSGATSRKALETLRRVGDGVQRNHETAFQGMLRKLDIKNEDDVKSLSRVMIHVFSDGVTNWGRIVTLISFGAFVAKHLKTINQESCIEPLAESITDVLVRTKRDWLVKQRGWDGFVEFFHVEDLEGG
# Excerpt: (§3) 11-175 (NP_065129.1), Mcl-1 a.a. […] For later BLI analysis, Bcl-B and Bfl-1 were genetically fused to C-terminal maltose-binding-protein with an avi-6his tag for improved solution properties. Codon usage was optimized for E. coli expression. […] The genes for individually-tested designed proteins were assembled from oligos (Hoover and Lubkowski, 2002) and cloned into pET29b (NdeI-XhoI sites) with C-terminal 6his tags for purification from E. coli, or cloned into PETCON (NdeI-XhoI sites; (Fleishman et al., 2011)) for yeast surface expression. Alternative tags were added using PCR methods. Point mutations were made by overlapping PCR (Procko et al., 2013). Error-prone PCR with an average error rate of 1.3 amino acid substitutions per clone used GeneMorph II Random Mutagenesis (Agilent Technologies).
# (§4) Purified avi-6his-tagged ligands (20 μM) in reaction buffer (250 mM potassium glutamate, 20 mM Tris-Cl [pH 7.5], 50 mM bicine [pH 8.3], 10 mM ATP, 10 mM MgOAc, 100 μM d-biotin) were enzymatically biotinylated with 150 U/μl BirA (Avidity) at room temperature overnight, followed by purification with NiNTA-agarose and SEC. Biotinylated ligands were stored at 4° C. in 150 mM NaCl, 20 mM Tris-Cl (pH 7.5), 1 mM DTT, 0.02% sodium azide.
# (§5) Data were collected on an Octet RED96 (Forte Bio) and processed using the instrument's integrated software. […] Biosensors were dipped in solutions containing the analyte of interest to measure association, and transferred back to empty binding buffer for monitoring dissociation. Kinetic constants were determined from the mathematical fit of a 1:1 binding model.
# [2] = test system: mitochondria isolated from Ramos-AW (EBV-positive) and Ramos (EBV-negative) cells; assay: Cytochrome c release from isolated mitochondria, Ramos-AW versus Ramos; type: cell-based, human; settings: 30 min
# Protocol: as §1, §2
# [3] = type: physicochemical; settings: for unfolding behaviour in guanidinium hydrochloride: loss of CD signal at 222 nm
# Protocol: CD spectra were recorded with a Model 420 spectrometer (AVIV Biomedical) or a J-1500 Circular Dichroism Spectrometer (JASCO). Unless stated otherwise, proteins were at 20 μM in PBS and data were collected at 25° C.
# Bfl-1 = target: T2, Bfl-1 (Homo sapiens, UniProt Q16548, C4S); assay: Bio-layer interferometry (BLI), immobilized Bfl-1; type: binding; set-up: Bfl-1 a.a; made in house; host or cells: E. coli BL21* (DE3); settings: lower bound in μM
# T2 sequence (Q16548 1-153 C4S): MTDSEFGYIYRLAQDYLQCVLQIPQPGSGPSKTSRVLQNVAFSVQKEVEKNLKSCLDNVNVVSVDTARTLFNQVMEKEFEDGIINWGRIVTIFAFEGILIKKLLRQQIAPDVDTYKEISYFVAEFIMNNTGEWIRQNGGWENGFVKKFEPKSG
# Excerpt: as §3, §4, §5
# Bcl-2 = target: T3, Bcl-2 (Homo sapiens, UniProt P10415); assay: Bio-layer interferometry (BLI), immobilized Bcl-2; type: binding
# T3 construct: human Bcl-2 a.a; made in house; host or cells: E. coli BL21* (DE3)
# T3 sequence (P10415 1-207): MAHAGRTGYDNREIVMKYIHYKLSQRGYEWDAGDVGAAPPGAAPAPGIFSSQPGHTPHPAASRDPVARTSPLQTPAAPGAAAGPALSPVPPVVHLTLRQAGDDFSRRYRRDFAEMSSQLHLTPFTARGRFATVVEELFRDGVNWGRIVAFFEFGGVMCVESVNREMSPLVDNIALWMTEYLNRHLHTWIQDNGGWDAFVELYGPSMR
# Excerpt: as §3
# as §4, with “Biotinylated ligands were stored at 4° C. in 150 mM NaCl, 20 mM Tris-Cl (pH 7.5), 1 mM DTT, 0.02% sodium azide.” left out
# Data were collected on an Octet RED96 (Forte Bio) and processed using the instrument's integrated software. […] Kinetic constants were determined from the mathematical fit of a 1:1 binding model.
# Bcl-B = target: T4, Bcl-B (Homo sapiens, UniProt Q9HD36); assay: Bio-layer interferometry (BLI), immobilized Bcl-B; type: binding; settings: lower bound in μM
# T4 construct: Bcl-B a.a; 11-175 (NP_065129.1); made in house; host or cells: E. coli BL21* (DE3)
# T4 sequence (Q9HD36 11-175): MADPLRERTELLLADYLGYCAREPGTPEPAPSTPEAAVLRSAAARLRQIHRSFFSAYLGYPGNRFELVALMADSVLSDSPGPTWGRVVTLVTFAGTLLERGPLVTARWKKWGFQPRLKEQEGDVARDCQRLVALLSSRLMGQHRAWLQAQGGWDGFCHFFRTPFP
# Excerpt: as §3, §4, §5
# colon cancer cell lines = assay: Long-term survival assay, colon cancer cell lines; type: cell-based, human; settings: long-term survival assay
# Protocol: Inducible αMCL1 and αBFL1 constructs were generated in a lentiviral vector described in Aubrey et al. (2015). Ligand expression is linked via the T2A peptide to mCherry™ fluorescent reporter protein. […] Viral supernatants were then filtered prior to target cell transduction. […] For infection of MEFs and colon cancer cell lines, equal volume of virus-containing supernatant was added to target cells pre-incubated with 10 ng/μL polybrene, and centrifuged at 2500 rpm for 2 hours at 32° C. Following spin inoculation, cells were then incubated overnight at 37° C. Cells expressing the doxycycline-inducible constructs were then selected by sorting mCherry^+ve cells. MEFs were maintained in DME Kelso medium supplemented with 10% (v/v) FBS, 250 mM L-asparagine and […] 2-mercaptoethanol. Colon cancer cell lines were maintained in DMEM/F-12 supplemented with 10% (v/v) FBS.
# MEF and colon cancers were seeded in 6-well tissue culture plates in 2 mL culture media at 150 cells per mL. The next day and every 48 hours following, doxycycline was added at a final concentration of 1 μg/mL to each well, while nothing was added to control wells.
# Bfl-1-dependent MEF line = assay: Long-term survival (colony) assay, Bfl-1-dependent MEFs; type: cell-based, mouse; settings: seven day colony survival, doxycycline-induced expression
# Excerpt: Mouse embryonic fibroblasts were generated from E13-E14.5 embryos derived from CreERT2/Bcl-x^fl/fl/Mcl-I^fl/fl C57BL/6 mice (Kelly et al., 2014) and immortalized (at passage 2-4) with SV40 large T antigen. Retroviral expression constructs in the pMIG vector (Murine Stem Cell Virus-IRES-GFP) expressing each FLAG-tagged pro-survival protein were transiently transfected using LIPOFECTAMINE™ (Invitrogen), into Phoenix ecotropic packaging cells. Filtered virus-containing supernatants were used to infect the MEFs by spin inoculation as previously described (Lee et al., 2008). Cells stably expressing each pro-survival protein were selected by sorting GFP^+ve cells 24 hours after spin inoculation and protein expression verified by Western blotting using an anti-FLAG antibody. Following verification of exogenous pro-survival protein expression, each cell line was treated with 1 μM Tamoxifen (Sigma-Aldrich) to enable deletion of endogenous Mcl-1 and Bcl-xL. Deletion of endogenous Mcl-1 and Bcl-xL was shown by Western blotting using anti-Mcl-1 (Rockland Clone, 600-401-394) and anti-Bcl-xL (BD Transduction Laboratories Clone 44/Bcl-x) antibodies. Cells were maintained in DME Kelso medium supplemented with 10% (v/v) fetal bovine serum, 250 mM L-asparagine and […] 2-mercaptoethanol.
# Inducible αMCL1 and αBFL1 constructs were generated in a lentiviral vector described in Aubrey et al. (2015). […]
Molecule,Kd (Bfl-1) [µM],Kd (Bcl-B) [µM],protein stability relative to the original computational design [3],Kd (Mcl-1) [µM],further results
B1,,,,,elution by SEC when mixed with BHRF1 (BHRF1; in solution): higher molecular weight (MW) complex; state by SEC after purification from E. coli (BHRF1; protein alone): monodisperse and monomeric
B2,,,,,"cytochrome c release ([1]; Raji and JVM-2): low levels of cytochrome c release; cytochrome c release ([1]; Ramos-AW, Daudi, Granta 519, JVM-13): high cytochrome c release; change of affinity for Mcl-1 relative to BINDI (Mcl-1): diminished six-fold; cytochrome c release, Ramos-AW compared with Ramos mitochondria [2]: enhanced apoptotic activity against EBV-positive Ramos-AW"
B3,,,,,unfolding behaviour in guanidinium hydrochloride [3]: unfolded over broad denaturant concentration ranges
B4,,,,,unfolding behaviour in guanidinium hydrochloride [3]: unfolded over broad denaturant concentration ranges
B5,> 75,> 75,slightly to moderately decreased,> 75,"fold weaker affinity for the next tightest binding BCL2 family protein (target Bcl-2) (Bcl-2): > 2,000 fold"
B6,> 50,> 50,slightly to moderately decreased,> 50,
B7,,,slightly to moderately decreased,,decrease in RKO cell survival (colon cancer cell lines): 63±4%; decrease in survival (Bfl-1-dependent MEF line): 85±6%
B8,> 25,> 25,,> 25,
B9,> 50,,,,
